Results: paper PMC10866667, “CTRP4/interleukin-6 receptor signaling ameliorates autoimmune encephalomyelitis by suppressing Th17 cell differentiation” (The Journal of Clinical Investigation, 2023)

T1: IL-6 receptor (IL-6R), in Jurkat cell membrane extract (UniProt P08887 20-468)
T1 construct: IL-6 receptor in membrane protein or membrane extract of Jurkat cells; also called IL-6Rα; source: Jurkat cells, membrane extract
T1 sequence (looked up): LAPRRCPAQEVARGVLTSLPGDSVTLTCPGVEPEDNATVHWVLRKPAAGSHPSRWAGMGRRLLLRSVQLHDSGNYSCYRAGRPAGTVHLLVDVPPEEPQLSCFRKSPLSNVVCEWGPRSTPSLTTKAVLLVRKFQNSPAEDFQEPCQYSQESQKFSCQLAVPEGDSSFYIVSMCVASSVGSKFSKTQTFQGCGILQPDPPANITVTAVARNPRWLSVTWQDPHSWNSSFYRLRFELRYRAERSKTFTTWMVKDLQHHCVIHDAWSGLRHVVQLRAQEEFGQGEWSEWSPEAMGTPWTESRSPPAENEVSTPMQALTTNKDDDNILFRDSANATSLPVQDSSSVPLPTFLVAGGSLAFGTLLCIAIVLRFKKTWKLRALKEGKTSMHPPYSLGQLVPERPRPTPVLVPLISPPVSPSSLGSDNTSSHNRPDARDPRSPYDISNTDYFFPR


Columns and labels:
[1] = target: T1, IL-6 receptor (IL-6R), in Jurkat cell …; test: radioligand binding; competition: Jurkat cell membrane extract and 125I-CTRP4 with different concentrations of unlabeled CTRP4, OSM or IL-6; 24 hours at 4°C, 25% PEG, γ counter; settings: one partner purified
[2] = target: T1, IL-6 receptor (IL-6R), in Jurkat cell …; test: radioligand binding; saturation: equivalent quantities of Jurkat cell membrane extract with 2-fold serial dilutions of 125I-CTRP4; nonspecific binding with 500-fold excess of CTRP4; 24 hours at 4°C, 25% PEG, γ counter; settings: one partner purified

Sequence of 125I-CTRP4 (Q9BXJ3 17-329): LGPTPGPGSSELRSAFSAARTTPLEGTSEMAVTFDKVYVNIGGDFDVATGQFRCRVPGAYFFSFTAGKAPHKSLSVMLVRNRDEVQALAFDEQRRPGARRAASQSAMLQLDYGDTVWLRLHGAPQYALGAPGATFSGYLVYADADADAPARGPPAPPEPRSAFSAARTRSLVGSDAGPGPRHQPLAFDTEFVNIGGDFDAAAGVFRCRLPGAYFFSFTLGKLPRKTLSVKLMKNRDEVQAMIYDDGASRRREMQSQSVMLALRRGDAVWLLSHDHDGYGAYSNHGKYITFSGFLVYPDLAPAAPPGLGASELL

IC50 [1] [nM]	Kd [2] [nM]	Binder
77.2		rhCTRP4 protein (unlabeled) (natural protein, rhCTRP4 protein purified from CTRP4-CHO cells; also called unlabeled CTRP4; recombinant CTRP4 protein) not shown
	3.94	125I-CTRP4 (natural protein, 125I label (chloramine T), rhCTRP4 protein purified from CTRP4-CHO cells; also called radio-iodinated CTRP4; 125I-labeled CTRP4) not shown
